EP1063290A1, “NOVEL DICARBONYLREDUCTASE AND GENE ENCODING THE SAME” (TAISHO PHARMACEUTICAL CO., LTD, priority 1998, dated 1999)

Assays:
Test in all cases: purified protein, by the assay type
[1] = substrate: COC(=O)C(=O)c1ccccc1; settings: other: rate constants for the major substrates, mouse enzyme; pH 7.0; 25.0 °C
Protocol: (§1) The enzyme activity assay method is not particularly restricted, and it may be based on the activity assay method for mouse carbonyl reductase (CR) (Eur. J. Biochem. 22, 381-387(1995)).
(§2) • (1) This was assayed under the following conditions. The reaction mixture (total: 2.0 ml) comprised an 80 mM potassium phosphate solution (pH 7.0 or 6.0), 0.1 mM NADPH or NADH and a carbonyl substrate or enzyme (50 µl) (10.1 µg or 3.7 µg of glomerin B). The oxidation rate for NAD(P)H was measured at 340 nm. One unit of enzyme activity was defined as that which catalyzed oxidation of 1 µmol of NAD(P)H in one minute at 25°C. • (2) The substrate specificity of protein DCR1 for carbonyl compounds is summarized in Table 1. • (3) pH dependency of diacetyl reductase activity due to protein DCR1 The activity was measured using 10 mM diacetyl, and the specific activity was calculated based on the protein concentration in the protein DCR1 sample (Fig. 7).

[2] = substrate: CC(=O)C(C)=O
[3] = substrate: COC(=O)C(C)=O; settings: other: rate constants for the major substrates, mouse enzyme; pH 7.0; 25.0 °C
Protocol: as §1, §2

[4] = substrate: CCCCC(=O)C(C)=O; settings: other: rate constants for the major substrates, mouse enzyme; pH 7.0; 25.0 °C
Protocol: as §1, §2

[5] = substrate: CC(=O)C(C)O; settings: other: rate constants for the major substrates, mouse enzyme; pH 7.0; 25.0 °C
Protocol: as §1, §2

[6] = substrate: CCC(=O)C(C)=O
[7] = substrate: O=Cc1cccnc1; settings: other: rate constants for the major substrates, mouse enzyme; pH 7.0; 25.0 °C
Protocol: as §1, §2

[8] = substrate: CCC(=O)C(=O)CC
[9] = substrate: O=Cc1ccncc1; settings: other: rate constants for the major substrates, mouse enzyme; pH 7.0; 25.0 °C
Protocol: as §1, §2

[10] = substrate: CCCC(=O)C(C)=O
[11] = substrate: CC(=O)C(=O)c1ccccc1; settings: pH 7.0; 25.0 °C
Protocol: as §1, §2

[12] = substrate: O=C(CBr)C(=O)CBr; settings: other: assay at pH 7.0, 25.0 °C
Protocol: The enzyme used here was an expressed recombinant enzyme. • (a) Substrate specificity: In order to determine the substrate specificity, there may be used a hydrocarbon system including various ketone, aldehyde and ester groups, or an aromatic compound.
The reaction mixture (total: 2.0 ml) comprised an 80 mM potassium phosphate solution (pH 7.0 or 6.0), 0.1 mM NADPH or NADH and a carbonyl substrate or enzyme (50 µl) (10.1 µg or 3.7 µg of hDCR1).
The oxidation rate for NAD(P)H was measured at 340 nm.
One unit of enzyme activity was defined as that which catalyzed oxidation of 1 µmol of NAD(P)H in one minute at 25°C.

[13] = other: rate constants for the major substrates, mouse enzyme, pH 7.0, 25.0 °C
[14] = other: assay at pH 7.0, 25.0 °C

B1: protein DCR1 (Mus musculus) (protein)
chain: MDLGLAGRRALVTGAGKGIGRSTVLALKAAGAQVVAVSRTREDLDDLVRECPGVEPVCVDLADWEATEQALSNVGPVDLLVNNAAVALLQPFLEVTKEACDTSFNVNLRAVIQVSQIVAKGMIARGVPGAIVNVSSQASQRALTNHTVYCSTKGALDMLTKMMALELGPHKIRVNAVNPTVVMTPMGRTNWSDPHKAKAMLDRIPLGKFAEVENVVDTILFLLSNRSGMTTGSTLPVDGGFLAT
With B1 the Km [1] was 690 µM, the Vmax [1] was 8.7 unit/mg and the Vmax/Km [1] was 13 unit/mg/mM. For the same protein, the Km [2, 13] was 900 µM, the Km [3] was 1,700 µM and the Vmax [3] was 2.7 unit/mg. The Vmax/Km [3] was 1.6 unit/mg/mM, the Km [4] was 200 µM and the Vmax [4] was 4.4 unit/mg. For the same protein, the Vmax/Km [4] was 22 unit/mg/mM, the Km [5] was 6,500 µM and the Vmax [5] was 0.51 unit/mg. For the same protein, the Vmax/Km [5] was 0.08 unit/mg/mM, the Km [6, 13] was 280 µM and the Vmax [6, 13] was 5.7 unit/mg. The Vmax/Km [6, 13] was 20 unit/mg/mM, the Km [7] was 7,900 µM and the Vmax [7] was 0.62 unit/mg. The Vmax/Km [7] was 0.08 unit/mg/mM, the Km [8, 13] was 130 µM and the Vmax [8, 13] was 6.6 unit/mg. The Vmax/Km [8, 13] was 51 unit/mg/mM, the Km [9] was 4,400 µM and the Vmax [9] was 0.78 unit/mg. The Vmax/Km [9] was 0.18 unit/mg/mM, the Km [10, 13] was 230 µM and the Vmax [10, 13] was 4.1 unit/mg. The Vmax/Km [10, 13] was 18 unit/mg/mM, the Km [11] was 140 µM and the Vmax [11] was 6.7 unit/mg. It also gave a Vmax/Km [11] of 48 unit/mg/mM.

B2: protein hDCR1 (Homo sapiens) (protein)
chain: MELFLAGRRVLVTGAGKGIGRGTVQALHATGARVVAVSRTQADLDSLVRECPGIEPVCVDLGDWEATERALGSVGPVDLLVNNAAVALLQPFLEVTKEAFDRSFEVNLRAVIQVSQIVARGLIARGVPGAIVNVSSQCSQRAVTNHSVYCSTKGALDMLTKVMALELGPHKIRVNAVNPTVVMTSMGQATWSDPHKAKTMLNRIPLGKFAEVEHVVNAILFLLSDRSGMTTGSTLPVEGGFWAC
For B2, the Km [12] was “(0.016) mM”, the Km [2, 14] was “(0.25) mM” and the Km [6, 14] was “(0.26) mM”. The Km [8, 14] was “(0.12) mM” and the Km [10, 14] was “(0.24) mM”.
